Changes are numbered by the printed parent chain. In names and notes the source's numbering stands.
B1: A3Bctd (193-382)-mycHis (domain or fragment)
chain: not shown
notes: APOBEC3B (A3B) C-terminal catalytic domain (ctd), residues 193-382; wild-type constructs match GenBank NM_004900; also called A3Bctd-mycHis; A3B-mycHis; not shown: myc, C-terminal, kept; His, C-terminal, kept
B2: MBP-BORF2 (1 to 826) (enzyme)
chain: MATTSHVEHELLSKLIDELKVKANSDPEADVLAGRLLHRLKAESVTHTVAEYLEVFSDKFYDEEFFQMHRDELETRVSAFAQSPAYERIVSSGYLSALRYYDTYLYVGRSGKQESVQHFYMRLAGFCASTTCLYAGLRAALQRARPEIESDMEVFDYYFEHLTSQTVCCSTPFMRFAGVENSTLASCILTTPDLSSEWDVTQALYRHLGRYLFQRAGVGVGVTGAGQDGKHISLLMRMINSHVEYHNYGCKRPVSVAAYMEPWHSQIFKFLETKLPENHERCPGIFTGLFVPELFFKLFRDTPWSDWYLFDPKDAGDLERLYGEEFEREYYRLVTAGKFCGRVSIKSLMFSIVNCAVKAGSPFILLKEACNAHFWRDLQGEAMNAANLCAEVLQPSRKSVATCNLANICLPRCLVNAPLAVRAQRADTQGDELLLALPRLSVTLPGEGAVGDGFSLARLRDATQCATFVVACSILQGSPTYDSRDMASMGLGVQGLADVFADLGWQYTDPPSRSLNKEIFEHMYFTALCTSSLIGLHTRKIFPGFKQSKYAGGWFHWHDWAGTDLSIPREIWSRLSERIVRDGLFNSQFIALMPTSGCAQVTGCSDAFYPFYANASTKVTNKEEALRPNRSFWRHVRLDDREALNLVGGRVSCLPEALRQRYLRFQTAFDYNQEDLIQMSRDRAPFVDQSQSHSLFLREEDAARASTLANLLVRSYELGLKTIMYYCRIEKAADLGVMECKASAALSVPREEQNERSPAEQMPPRPMEPAQVAGPVDIMSKGPGEGPGGWCVPGGLEVCYKYRQLFSEDDLLETDGFTERACESCQ
notes: Epstein-Barr virus ribonucleotide reductase large subunit BORF2, residues 1 to 826, codon-optimized gene; wild-type constructs match GenBank V01555.2; Dimer in the cryo-EM structure; The MBP tag was not detected in the maps; also called EBV RNR large subunit; wild-type BORF2; source: 293T, transfected; purified (amylose resin, SEC); not shown: MBP, N-terminal, kept
B3: MBP-BORF2 R39E/D26R (enzyme, Epstein-Barr virus (EBV), UniProt P03190 1-826, looked up)
chain: B2 chain with D26R, R39E
notes: Epstein-Barr virus BORF2, residues 1 to 826, codon-optimized gene; GenBank V01555.2; also called D26R/R39E BORF2; double mutant R39E/D26R; source: 293T, transfected; purified with amylose resin (SEC profiles); in lysate (co-IP); not shown: MBP, N-terminal, kept
B4: MBP-BORF2 D26R (enzyme, Epstein-Barr virus (EBV), UniProt P03190 1-826, looked up)
chain: B2 chain with D26R
notes: Epstein-Barr virus BORF2, residues 1 to 826, codon-optimized gene; GenBank V01555.2; source: 293T, transfected; purified with amylose resin (SEC profiles); in lysate (co-IP); not shown: MBP, N-terminal, kept

What was measured:
MBP-BORF2 (1 to 826) = target: B2; experiment: BLI; Octet RED; A3-mycHis proteins loaded on Ni-NTA biosensors (12.5 ug/ml A3Bctd and A3A, 8 ug/ml A3G); MBP-BORF2 200 to 6.25 nM; 20 mM tris-HCl (pH 8), 300 mM NaCl; 30°C; association 1200 s, dissociation 1800 s; 1:2 binding model; conditions: both partners purified
[1] = target: the molecule itself; experiment: cryo-EM structure; MBP-BORF2 (after amylose resin) mixed with excess purified A3Bctd-mycHis, complex isolated by SEC in 20 mM tris-HCl (pH 8), 150 mM NaCl, 1 mM TCEP; dimeric classes, C2, focused refinement
A3Bctd (193-382)-mycHis = target: B1; experiment: SEC; BORF2 and A3Bctd purified individually with affinity resins, mixed with excess A3Bctd, run on SEC; SDS-PAGE of the fractions of the major peak; 20 mM tris-HCl (pH 8), 150 mM NaCl; conditions: both partners purified
[2] = target: the molecule itself; experiment: SEC; MBP-BORF2 and mutant derivatives purified with amylose resin; approximately 150 ug of each on S200 Increase in 10 mM tris-HCl (pH 8), 150 mM NaCl; self-association (dimer to monomers)

Chain of A3Bctd (193-382)-mycHis (Q9UH17 193-382): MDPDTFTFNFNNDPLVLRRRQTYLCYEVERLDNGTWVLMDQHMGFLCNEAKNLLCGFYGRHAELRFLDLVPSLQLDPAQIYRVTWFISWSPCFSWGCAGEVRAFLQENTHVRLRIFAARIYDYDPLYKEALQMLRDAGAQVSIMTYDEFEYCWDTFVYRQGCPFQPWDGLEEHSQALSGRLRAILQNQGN

Binder: B1
- Kd (MBP-BORF2 (1 to 826)): ~1 nM

Binder: B2
- stoichiometry N [1]: 2
- stoichiometry N (A3Bctd (193-382)-mycHis): 1

Binder: B3
- binding result [2]: binds

Binder: B4
- binding result [2]: binds

Source: paper PMC9045721, “Cryo-EM structure of the EBV ribonucleotide reductase BORF2 and mechanism of APOBEC3B inhibition” (Science Advances, 2022)
